Earlier results on two substances are cited in publication PMC10866841.

Where two headings read alike, the source gives them in different places.

Data set [1] has as its target oligomeric amyloid-β (Homo sapiens) (UniProt P05067).
In data set [2] the target is C4d C4d (Homo sapiens) (UniProt P0C0L4).
The target of data set [3] is oligomeric amyloid-β (Homo sapiens) (UniProt P05067). This is another data set of the same source.
For data set [4], the target named is C4d C4d (Homo sapiens) (UniProt P0C0L4). The source holds these as a separate data set.

PIRB, sequence (P97484 25-642): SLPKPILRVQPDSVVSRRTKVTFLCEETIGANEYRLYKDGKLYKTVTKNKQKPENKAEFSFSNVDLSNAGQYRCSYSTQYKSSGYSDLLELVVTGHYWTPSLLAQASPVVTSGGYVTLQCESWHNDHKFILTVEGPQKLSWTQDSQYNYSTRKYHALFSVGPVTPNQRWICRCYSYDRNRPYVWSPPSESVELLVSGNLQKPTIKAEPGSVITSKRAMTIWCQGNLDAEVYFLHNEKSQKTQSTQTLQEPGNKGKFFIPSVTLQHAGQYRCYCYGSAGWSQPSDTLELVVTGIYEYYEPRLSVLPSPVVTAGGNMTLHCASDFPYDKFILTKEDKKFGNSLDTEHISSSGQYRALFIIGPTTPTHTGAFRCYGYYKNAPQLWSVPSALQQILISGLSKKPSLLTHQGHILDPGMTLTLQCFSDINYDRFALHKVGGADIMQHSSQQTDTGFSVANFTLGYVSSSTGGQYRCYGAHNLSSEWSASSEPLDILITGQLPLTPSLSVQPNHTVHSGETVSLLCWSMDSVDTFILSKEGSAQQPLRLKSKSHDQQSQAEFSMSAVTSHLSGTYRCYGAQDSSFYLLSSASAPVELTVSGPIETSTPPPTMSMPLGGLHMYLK
C4d C4d (Homo sapiens), sequence (P0C0L4 957-1336): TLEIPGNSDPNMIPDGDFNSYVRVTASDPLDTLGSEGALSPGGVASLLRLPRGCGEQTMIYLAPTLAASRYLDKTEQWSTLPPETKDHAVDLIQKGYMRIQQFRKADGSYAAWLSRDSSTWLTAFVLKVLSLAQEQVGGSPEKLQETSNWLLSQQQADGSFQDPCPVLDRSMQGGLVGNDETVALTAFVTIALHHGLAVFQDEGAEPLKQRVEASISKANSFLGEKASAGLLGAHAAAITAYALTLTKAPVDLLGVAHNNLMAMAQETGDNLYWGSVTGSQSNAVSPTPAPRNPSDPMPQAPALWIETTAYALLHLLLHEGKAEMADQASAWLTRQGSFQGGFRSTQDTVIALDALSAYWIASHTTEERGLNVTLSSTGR
oligomeric amyloid-β (Homo sapiens), sequence (P05067 672-713): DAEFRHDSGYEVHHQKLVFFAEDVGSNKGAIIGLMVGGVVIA
LILRB2, sequence (Q8N423 22-460): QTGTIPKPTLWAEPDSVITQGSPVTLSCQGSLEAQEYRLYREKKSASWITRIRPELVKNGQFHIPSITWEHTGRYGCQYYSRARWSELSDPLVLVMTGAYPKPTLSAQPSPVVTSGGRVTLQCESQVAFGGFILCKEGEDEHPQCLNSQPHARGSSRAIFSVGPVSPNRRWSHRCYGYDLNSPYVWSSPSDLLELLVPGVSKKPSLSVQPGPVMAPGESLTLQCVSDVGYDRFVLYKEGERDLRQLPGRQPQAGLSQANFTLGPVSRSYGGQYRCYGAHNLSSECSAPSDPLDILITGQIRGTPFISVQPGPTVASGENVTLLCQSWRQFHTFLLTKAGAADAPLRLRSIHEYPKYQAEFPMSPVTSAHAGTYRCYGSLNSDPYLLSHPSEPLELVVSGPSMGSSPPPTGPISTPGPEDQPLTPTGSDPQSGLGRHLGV

On to PIRB (from UniProt P97484), for which the Kd in data set [1] was 0.18 µM; in data set [2] it was 0.63 µM.
With LILRB2 (from UniProt Q8N423), the Kd is 0.18 µM in data set [3] and 0.63 µM in data set [4].
